Data from patent US20080132681A1.
Several values for one entry are separate records, joined by “and”; a condition that tells them apart may be missing. Equal values may be shown once.

Biological target: IFNα receptor 2 (IFNAR2) on THP-1 cells (human) (UniProt P48551)
Test: cell-based or functional assay

Chain of UniProt P48551 (P48551 27-515): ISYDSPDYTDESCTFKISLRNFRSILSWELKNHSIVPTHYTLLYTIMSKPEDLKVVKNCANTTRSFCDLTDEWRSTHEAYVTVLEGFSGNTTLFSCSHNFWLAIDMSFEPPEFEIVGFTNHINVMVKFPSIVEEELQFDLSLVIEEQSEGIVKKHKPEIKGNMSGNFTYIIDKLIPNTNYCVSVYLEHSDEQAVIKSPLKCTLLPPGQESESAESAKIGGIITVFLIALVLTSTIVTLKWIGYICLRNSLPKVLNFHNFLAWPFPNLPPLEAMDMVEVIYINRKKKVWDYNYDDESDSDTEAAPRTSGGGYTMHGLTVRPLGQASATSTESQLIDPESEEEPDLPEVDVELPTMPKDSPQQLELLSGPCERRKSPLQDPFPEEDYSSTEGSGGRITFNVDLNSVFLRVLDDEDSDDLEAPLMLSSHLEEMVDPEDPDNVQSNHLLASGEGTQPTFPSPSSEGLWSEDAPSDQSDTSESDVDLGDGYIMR

6HisC1G/C98 IFNα-2a + limitin loop (from UniProt P01563 25-188) (ligand)
pSTAT1 EC50 (THP-1 cells): 30 pM and 34.8 pM
